In patent US20190248888A1, “METHODS OF LOWERING BLOOD GLUCOSE LEVELS” (Regeneron Pharmaceuticals, Inc., priority 2016, published 2019):

Tested on: isolated pancreatic islets from mice
Experiment: RNAseq gene expression in isolated pancreatic islets of GCGR antibody treated mice (Table 5)
Assay type: in vivo, mouse
Details: 10 mg/kg, 21 days
Experimental: Mouse islets were isolated by density gradient separation after perfusing pancreas with Liberase TL (Roche, Indianapolis) through the common bile duct. Following a 13 min digestion at 37° C., the pancreas solution was washed and filtered through a 400-μm wire mesh strainer and islets were separated by Histopaque gradient centrifugation (Sigma-Aldrich). Isolated islets were cultured overnight in RPMI-1640 medium supplemented with 10% (v/v) FBS, 10 mM HEPES, 50 μM β-mercaptoethanol, 1.0 mM sodium-pyruvate, 100 U/mL penicillin and 100 μg/mL streptomycin at 37° C. with a 5% CO2 in air atmosphere.
Total RNA was purified from all samples using MagMAX™-96 for Microarrays Total RNA Isolation Kit (Ambion by Life Technologies) according to manufacturer's specifications. Genomic DNA was removed using MagMAX™Turbo™DNase Buffer and TURBO DNase from the MagMAX kit listed above (Ambion by Life Technologies). mRNA was purified from total RNA using Dynabeads® mRNA Purification Kit (Invitrogen). Strand-specific RNA-seq libraries were prepared using ScriptSeq™ mRNA-Seq Library Preparation Kit (Epicentre). Twelve-cycle PCR was performed to amplify libraries. Sequencing was performed on Illumina HiSeq®2000 (Illumina) by multiplexed single-read run with 33 cycles.
Raw sequence data (BCL files) were converted to FASTQ format via Illumina Casava 1.8.2. Reads were decoded based on their barcodes and read quality was evaluated with FastQC (http://www.bioinformatics.babraham.ac.uk/projects/fastqc/). Reads were mapped to the mouse transcriptome (NCBI GRCh37) using CLC Genomics Workbench Version 7.0 (CLCbio) or TopHat2 (Version 2.0.10) allowing two mismatches. Reads mapped to the exons of a gene were summed at the gene level. To identify differentially expressed genes, the statistical significance (p-value) of the differential expressions was assessed with DESeq package (version 1.6 or 2.0). […]

[1] = α-GCGR vs Control, isolated islets

B1: α-GCGR: potent monoclonal GCGR blocking antibody, HCVR/LCVR SEQ ID NOs: 86/88 (antibody, V domains shown)
VH: EVQLVESGGGLVQPGGSLRLSCAASGFTFSNYLMNWVRQAPGKGLEWLANIQEDGIEKYYVDSVKGRFTISRDNAKNSLYLQMNSLRAEDTAVYYCAREPSHYDILTGYDYYYGMDVWGQGTTVTVS
VL: DIQMTQSPSSLSASVGDRVTITCRASQGIRNDLGWYQQKPGKAPKRLIYAASSLQSGVPSRFSGSGSGTEFILTVSSLQPEDFATYYCLQYNSNPFTFGPGTKVDIK
In the case of B1, the “Slc38a5 gene expression in isolated pancreatic islets” value (mice, vs control antibody) is reported as “most upregulated gene”, the “1700086L19Rik Fold change” value [1] is reported as 1.89 and the “1810011O10Rik Fold change” value [1] is reported as −1.64. For the same molecule, the “1810041L15Rik Fold change” value [1] was 1.67, the “4930539E08Rik Fold change” value [1] was 1.96 and the “9030617O03Rik Fold change” value [1] was 1.72. The “AW551984 Fold change” value [1] was 1.69, the “Acta1 Fold change” value [1] was −1.79 and the “Agpat4 Fold change” value [1] was 1.73. For the same molecule, the “Agt Fold change” value [1] was 1.78, the “Ang Fold change” value [1] was 1.62 and the “Ano1 Fold change” value [1] was −1.78. The “Anxa3 Fold change” value [1] was −1.53, the “Anxa13 Fold change” value [1] was −1.60 and the “Apoa2 Fold change” value [1] was 1.68. The “Apod Fold change” value [1] was 1.53, the “Apol7a Fold change” value [1] was −1.51 and the “Arg1 Fold change” value [1] was 1.53. The “Arx Fold change” value [1] was 1.59, the “Asb11 Fold change” value [1] was −1.51 and the “Avpr1b Fold change” value [1] was 2.54. The “Basp1 Fold change” value [1] was 1.65, the “Blnk Fold change” value [1] was 1.55 and the “Bok Fold change” value [1] was −1.85. For the same molecule, the “Car9 Fold change” value [1] was −1.55, the “Cdc42ep1 Fold change” value [1] was −1.54 and the “Clec2d Fold change” value [1] was 1.82. The “Clic6 Fold change” value [1] was −1.69, the “Clu Fold change” value [1] was −1.80 and the “Cnih2 Fold change” value [1] was 1.55. The “Cobl Fold change” value [1] was 1.58, the “Ctse Fold change” value [1] was −1.50 and the “Dbpht2 Fold change” value [1] was 1.87. The “Dmbt1 Fold change” value [1] was −1.61, the “Dpp6 Fold change” value [1] was 1.79 and the “Drc1 Fold change” value [1] was 1.96. For the same molecule, the “Eda2r Fold change” value [1] was 1.59, the “Eef1a2 Fold change” value [1] was 2.18 and the “Ehf Fold change” value [1] was 1.61. The “Etv1 Fold change” value [1] was 1.62, the “F5 Fold change” value [1] was 1.51 and the “Ffar4 Fold change” value [1] was 1.78. The “Fgd3 Fold change” value [1] was −1.67, the “Fgl2 Fold change” value [1] was 1.65 and the “Gamt Fold change” value [1] was −1.50. The “Gbp8 Fold change” value [1] was 1.84, the “Gbp9 Fold change” value [1] was 1.74 and the “Gc Fold change” value [1] was 1.83. The “Gcg Fold change” value [1] was 3.55, the “Gcnt4 Fold change” value [1] was 1.58 and the “Gfra1 Fold change” value [1] was 1.53. The “Gfra3 Fold change” value [1] was 2.71, the “Gm609 Fold change” value [1] was 2.04 and the “Gm20554 Fold change” value [1] was 1.67. The “Gng2 Fold change” value [1] was 1.63, the “Gpr119 Fold change” value [1] was 1.54 and the “Gpx3 Fold change” value [1] was 2.86. For the same molecule, the “Hspb1 Fold change” value [1] was −1.54, the “Ifih1 Fold change” value [1] was 2.33 and the “Igsf23 Fold change” value [1] was −1.65. For the same molecule, the “Irx1 Fold change” value [1] was 1.83, the “Irx2 Fold change” value [1] was 2.00 and the “Itgb4 Fold change” value [1] was −1.69. The “Jchain Fold change” value [1] was 1.57, the “Kcna2 Fold change” value [1] was −1.68 and the “Kcnab3 Fold change” value [1] was −1.73. The “Kcnf1 Fold change” value [1] was −1.56, the “Kcnk3 Fold change” value [1] was 2.23 and the “Klb Fold change” value [1] was 1.77. The “Klhl13 Fold change” value [1] was 1.91, the “Krt19 Fold change” value [1] was −1.61 and the “Krt20 Fold change” value [1] was −1.63. For the same molecule, the “Krt23 Fold change” value [1] was −1.96, the “Lamb3 Fold change” value [1] was −1.71 and the “Mafb Fold change” value [1] was 1.86. For the same molecule, the “Mamld1 Fold change” value [1] was 1.75, the “Mapk13 Fold change” value [1] was −1.50 and the “Matn2 Fold change” value [1] was −1.55. The “Ndst4 Fold change” value [1] was 2.71, the “Necab2 Fold change” value [1] was −1.50 and the “Nefm Fold change” value [1] was 1.53. The “Npr1 Fold change” value [1] was −1.65, the “Nptxr Fold change” value [1] was −1.57 and the “Nsg2 Fold change” value [1] was 1.56. For the same molecule, the “Ntn1 Fold change” value [1] was −1.61, the “Nudt11 Fold change” value [1] was 2.00 and the “Nyap1 Fold change” value [1] was 1.77. For the same molecule, the “Ocrl Fold change” value [1] was 1.57, the “Oit1 Fold change” value [1] was 1.71 and the “Olfm3 Fold change” value [1] was 1.96. For the same molecule, the “Oxtr Fold change” value [1] was 1.53, the “Pdk4 Fold change” value [1] was 2.83 and the “Peg10 Fold change” value [1] was 2.06. The “Pla2g2d Fold change” value [1] was 1.50, the “Ptf1a Fold change” value [1] was −1.95 and the “Ptprd Fold change” value [1] was 1.62. The “Ptprg Fold change” value [1] was 1.52, the “Rasd1 Fold change” value [1] was −1.54 and the “Rbms3 Fold change” value [1] was 1.51. For the same molecule, the “Rbp4 Fold change” value [1] was 1.64, the “Rcn1 Fold change” value [1] was 1.54 and the “Rragb Fold change” value [1] was 1.67. For the same molecule, the “Sema3e Fold change” value [1] was 1.81, the “Serpinb6b Fold change” value [1] was −1.68 and the “Serpine2 Fold change” value [1] was 2.80. For the same molecule, the “Serping1 Fold change” value [1] was 1.71, the “Sftpd Fold change” value [1] was 2.07 and the “Sgce Fold change” value [1] was 1.84. The “Sh2d4a Fold change” value [1] was −1.52, the “Sh3bgr Fold change” value [1] was 1.54 and the “Slc38a3 Fold change” value [1] was −1.54. The “Slc38a5 Fold change” value [1] was 5.54, the “Smarca1 Fold change” value [1] was 1.88 and the “Spns2 Fold change” value [1] was −1.76. For the same molecule, the “St8sia1 Fold change” value [1] was −1.67, the “Syt16 Fold change” value [1] was 1.63 and the “Tead2 Fold change” value [1] was −1.60. For the same molecule, the “Tesc Fold change” value [1] was 1.54, the “Tmsb15b1 Fold change” value [1] was 1.60 and the “Tspan1 Fold change” value [1] was −2.50. The “Ttr Fold change” value [1] was 4.27, the “Vnn1 Fold change” value [1] was −1.50 and the “Vwde Fold change” value [1] was 2.23. For the same molecule, the “Wfdc16 Fold change” value [1] was 1.51 and the “Wnk3 Fold change” value [1] was 2.33.
